Numbering of substitutions follows the chain as printed. Each block holds one molecule with its values, some of them ahead of it.
Legend:
PN7 tumors = experiment: Serial transplantation of cells from treated PN7 tumors (tumorigenicity); format: in vivo, NOD-SCID mice; conditions: 90 cells injected, 40 days growth with no treatment; vs control antibody
Procedure: The PN7 tumors described above were processed to yield single cell suspensions. Mouse cells were depleted from the cell mixtures using biotinylated anti-H2K^d and anti-CD45 antibodies and streptavidin-conjugated magnetic beads. The remaining human tumor cells were serially transplanted into a new cohort of mice. 90 tumor cells from each treatment group were injected into the flanks of NOD-SCID mice (n=10 mice per group). Tumors were allowed to grow for 40 days with no treatment and tumor volumes were measured with electronic calipers.

[1] = system: PN31 pancreatic tumor cells; experiment: PN31 pancreatic tumor xenograft growth in NOD/SCID mice; format: in vivo; conditions: vs control; antibodies 15 mg/kg once a week, gemcitabine once a week, intraperitoneal
Procedure: Dissociated PN31 pancreatic tumor cells (1×10^5cells) were injected subcutaneously into the flanks of 6-8 week old NOD/SCID mice. Tumors were allowed to grow for 61 days until they reached an average volume of 120 mm^3. The mice were randomized (n=10 per group) and treated with anti-RSPO1 antibody 89M5, anti-RSPO2 antibody 130M23, gemcitabine, a combination of 89M5 and gemcitabine, a combination of 130M23 and gemcitabine, or control antibody 1B7.11. Antibodies were dosed at 15 mg/kg once a week, and gemcitabine was dosed at […] once a week. Administration of the antibodies and gemcitabine was performed via injection into the intraperitoneal cavity. Tumor growth was monitored and tumor volumes were measured with electronic calipers at specific time points. Data are expressed as mean±S.E.M.

binding of RSPO1 to LGR5 = target: T1, binding of RSPO1 to LGR5 (Homo sapiens, UniProt Q2MKA7); experiment: FACS: blocking of soluble RSPO1-Fc binding to LGR5 on HEK-293 cells; conditions: RSPO1-Fc 10 μg/ml, antibodies 10 μg/ml
T1 construct: full-length human RSPO1, RSPO2, RSPO3 and RSPO4 were ligated in-frame to a human Fc region; made in house; host or cells: RSPO1-Fc: insect cells (baculovirus); LGR5 construct: transiently transfected HEK-293
Procedure: HEK-293 cells were transiently transfected with the FLAG-LGR5-CD4TM-GFP construct (previously described in Example 2). After 48 hours, transfected cells were suspended in ice cold PBS containing 2% FBS and heparin and incubated on ice in the presence of RSPO1-Fc protein (10 μg/ml) and antibodies 89M2, 89M4, 89M5, 89M7, 89M19 or 89M25 (10 μg/ml). A second incubation with 100 μl PE-conjugated anti-human Fc secondary antibody was performed to detect cells bound by the RSPO1-Fc fusion protein. The cells were analyzed on a FACSCalibur instrument (BD Biosciences, San Jose, Calif.) and the data was processed using FlowJo software.

human RSPO1 = target: T2, human RSPO1 (Homo sapiens, UniProt Q2MKA7); experiment: FACS screening of hybridoma supernatants on HEK-293 cells expressing FLAG-RSPO1furin-CD4TM-GFP; format: binding
T2 construct: followed by the two furin-like domains of RSPO1 (aa 34-135); expressed in transfected cells; host or cells: HEK-293
Description: Antibodies were generated against recombinant human RSPO1 protein amino acids 31-263 (R&D Systems, Minneapolis, Minn.). Mice (n=3) were immunized with RSPO1 protein using standard techniques. Sera from individual mice were screened against RSPO1 approximately 70 days after initial immunization using FACS analysis. The animal with the highest antibody titer was selected for final antigen boost after which spleen cells were isolated for hybridoma production. SP2/0 cells were used as fusion partners for the mouse spleen cells. Hybridoma cells were plated at 1 cell per well in 96 well plates, and the supernatants were screened against human RSPO1 by FACS analysis.
For FACS screening of anti-RSPO1 antibodies a chimeric fusion protein enabling cell surface expression of the N-terminal furin-like domains of human RSPO1 was constructed.
HEK-293 cells were transfected with FLAG-RSPOlfurin-CD4TM-GFP. After 48 hours, transfected cells were suspended in ice cold PBS containing 2% FBS and heparin and incubated on ice in the presence of 50 μl of hybridoma supernatants for 30 minutes. A second incubation with 100 μl PE-conjugated […] secondary antibody was performed to detect cells bound by antibody. Cells were incubated with an anti-FLAG antibody (Sigma-Aldrich, St. Louis, Mo.) as a positive control and an anti-PE antibody as a negative control. The cells were analyzed on a FACSCalibur instrument (BD Biosciences, San Jose, Calif.) and the data was processed using FlowJo software.

[2] = system: RSPO1-induced β-catenin signaling; experiment: TOPflash luciferase assay in HEK-293 cells, Wnt3a plus human RSPO1; format: cell-based; conditions: Wnt3a 5 ng/ml, RSPO1 10 ng/ml; antibodies 10 to 0.625 μg/ml
Procedure: HEK-293 cells were transfected with a 6×TCF-luciferase reporter vector (TOPflash, Millipore, Billerica, Mass.). After 24-48 hrs, the transfected HEK-293 cells were incubated with a combination of Wnt3a (5 ng/ml) and human RSPO1 (10 ng/ml, R&D BioSystems) in the presence of anti-RSPO1 antibodies 89M2, 89M4, 89M5, 89M7, 89M19, and 89M25, or 2 irrelevant control antibodies 254M14 and 254M26 (2-fold dilutions at 10 μg/ml to 0.625 μg/ml). The cells were incubated for 16 hours and luciferase activity was measured using Steady-Glo® Luciferase Assay System according to the manufacturer's instructions (Promega, Madison, Wis.).

RSPO = experiment: FACS RSPO binding activity of conditioned media from HEK-293 cells cotransfected with candidate humanized chains; conditions: conditioned media of cotransfected HEK-293 cells
Procedure: The functionality of each candidate variant humanized heavy chain and light chain was tested by cotransfection into mammalian cells. Each candidate humanized heavy chain described above was cotransfected into HEK-293 cells with the murine light chain cDNA, and conditioned media was assayed by FACS for RSPO binding activity. […] The 89M5-H2 humanized heavy chain was cotransfected into HEK-293 cells with each of the candidate humanized light chains, and conditioned media was again assayed for antigen binding by FACS. […] The 130M23-H1 humanized heavy chain was cotransfected into HEK-293 cells with each of the candidate humanized light chains, and conditioned media was again assayed for antigen binding by FACS.

[3] = system: PN7 pancreatic tumor cells; experiment: PN7 pancreatic tumor xenograft growth in NOD/SCID mice; format: in vivo; conditions: vs control antibody; 130M23 10 mg/kg, 18R5 20 mg/kg, gemcitabine once a week, intraperitoneal
Procedure: Dissociated PN7 pancreatic tumor cells (1×10^5cells) were injected subcutaneously into the flanks of 6-8 week old NOD/SCID mice. Tumors were allowed to grow for 25 days until they reached an average volume of 130 mm^3. The mice were randomized (n=10 per group) and treated with anti-RSPO2 antibody 130M23, anti-FZD antibody 18R5, gemcitabine, a combination of 130M23 and gemcitabine, a combination of 18R5 and gemcitabine, a combination of 130M23 and 18R5, a combination of 130M23, 18R5 and gemcitabine, or control antibody 1B7.11. Anti-RSPO2 antibody 130M23 was dosed at 10 mg/kg once a week, anti-FZD antibody 18R5 was dosed at 20 mg/kg once a week, and gemcitabine was dosed at […] once a week. Administration of the antibodies and gemcitabine was performed via injection into the intraperitoneal cavity. Tumor growth was monitored and tumor volumes were measured with electronic calipers at specific time points. Data are expressed as mean±S.E.M. A parallel set of experiments included mice treated with a FZD8-Fc soluble receptor (10 mg/kg) in combination with gemcitabine and FZD8-Fc in combination with 130M23 and gemcitabine.

T2 sequence (Q2MKA7 34-135): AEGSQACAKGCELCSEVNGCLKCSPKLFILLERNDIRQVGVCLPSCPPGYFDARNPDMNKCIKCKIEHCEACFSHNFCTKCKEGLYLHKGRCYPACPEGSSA
T1 sequence (Q2MKA7 21-263): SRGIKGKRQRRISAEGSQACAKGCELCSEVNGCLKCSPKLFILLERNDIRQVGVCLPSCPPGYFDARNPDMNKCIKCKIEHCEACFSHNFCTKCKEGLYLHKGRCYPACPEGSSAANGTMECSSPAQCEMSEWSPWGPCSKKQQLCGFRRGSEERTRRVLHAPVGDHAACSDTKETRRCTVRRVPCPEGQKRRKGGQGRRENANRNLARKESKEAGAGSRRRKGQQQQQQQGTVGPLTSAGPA

Molecule: Nc1ccn([C@@H]2O[C@H](CO)[C@@H](O)C2(F)F)c(=O)n1 [gemcitabine, reference compound]
tumorigenicity of cells isolated from treated mice (PN7 tumors): decrease in tumorigenicity | reduction in tumor growth [1]: 49%

blocking of binding of RSPO1 to LGR5 (binding of RSPO1 to LGR5): blocked | binding to RSPO1 (FACS) (human RSPO1): bound
B1: 89M2: anti-RSPO1 monoclonal antibody; same heavy and light chain variable regions as 89M5 (antibody, V domains shown)
VH: EVQLQQSGPELVKPGASVKISCKTSGYTFTGYTMHWVRQSHGKTLEWIGGINPNNGGTTYNQNFKGKATLTVEKSSTTAYLELRSLTSEDSALYYCARKEFSDGYYFFAYWGQGTLVTVSA
VL: DIVMTQSHKFMSTSVGDRVNITCKASQDVIFAVAWYQQKPGQSPKLLIYWASTRHTGVPDRFTGSVSGTDYTLTISSVQAEDLALYYCQQHYSTPWTFGGGTKLEIK
blocking of RSPO1-induced β-catenin signaling [2]: blocked

blocking of binding of RSPO1 to LGR5 (binding of RSPO1 to LGR5): blocked | binding to RSPO1 (FACS) (human RSPO1): bound
B2: 89M4: anti-RSPO1 monoclonal antibody; same heavy and light chain variable regions as 89M5 (antibody, V domains shown)
VH: B1 VH
VL: B1 VL
blocking of RSPO1-induced β-catenin signaling [2]: blocked

B3: 89M5-H2: humanized 89M5 heavy chain variant (SEQ ID NO:68) (antibody)
heavy: QVQLVQSGAEVKKPGASVKVSCKTSGYTFTGYTMHWVRQAPGQRLEWMGGINPNNGGTTYNQNFKGRVTITRDTSASTAYMELSSLRSEDTAVYYCARKEFSDGYYFFAYWGQGTLVTVSSASTKGPSVFPLAPCSRSTSESTAALGCLVKDYFPEPVTVSWNSGALTSGVHTFPAVLQSSGLYSLSSVVTVPSSNFGTQTYTCNVDHKPSNTKVDKTVERKCCVECPPCPAPPVAGPSVFLFPPKPKDTLMISRTPEVTCVVVDVSHEDPEVQFNWYVDGVEVHNAKTKPREEQFNSTFRVVSVLTVVHQDWLNGKEYKCKVSNKGLPAPIEKTISKTKGQPREPQVYTLPPSREEMTKNQVSLTCLVKGFYPSDIAVEWESNGQPENNYKTTPPMLDSDGSFFLYSKLTVDKSRWQQGNVFSCSVMHEALHNHYTQKSLSLSPGK
modifications: h89M5-H2L2 Heavy chain amino acid sequence
binding by FACS among candidate humanized chain variants (RSPO): most robust binding

B4: 18R5: anti-FZD antibody, Wnt pathway inhibitor (antibody, chains of the INN, looked up, V domains shown)
VH: EVQLVESGGGLVQPGGSLRLSCAASGFTFSHYTLSWVRQAPGKGLEWVSVISGDGSYTYYADSVKGRFTISSDNSKNTLYLQMNSLRAEDTAVYYCARNFIKYVFANWGQGTLVTVSS
VL: DIELTQPPSVSVAPGQTARISCSGDNIGSFYVHWYQQKPGQAPVLVIYDKSNRPSGIPERFSGSNSGNTATLTISGTQAEDEADYYCQSYANTLSLVFGGGTKLTVL
tumorigenicity of cells isolated from treated mice (PN7 tumors): greatly decreased tumorigenicity | reduction in tumor growth [3]: approximately 55%

B5: 89M5-L2: humanized 89M5 light chain variant (SEQ ID NO:69) (protein)
light: DIQMTQSPSSLSASVGDRVTITCKASQDVIFAVAWYQQKPGKAPKLLIYWASTRHTGVPSRFSGSGSGTDYTLTISSLQPEDFATYYCQQHYSTPWTFGGGTKVEIKRTVAAPSVFIFPPSDEQLKSGTASVVCLLNNFYPREAKVQWKVDNALQSGNSQESVTEQDSKDSTYSLSNTLTLSKADYEKHKVYACEVTHQGLSSPVTKSFNRGEC
modifications: h89M5-H2L2 Light chain amino acid sequence
binding by FACS among candidate humanized chain variants (RSPO): most robust binding

B6: 130M23-L2: humanized 130M23 light chain variant (SEQ ID NO:71) (protein)
light: B5 light with I30S, F31S, Y71F, L78V, P80A, G100Q
modifications: h130M23-H1L2 Light chain amino acid sequence
binding by FACS among candidate humanized chain variants (RSPO): most robust binding

B7: 130M23-H1: humanized 130M23 heavy chain variant (SEQ ID NO:70) (antibody)
heavy: EVQLVESGGGLVKPGGSLRLSCAASGFTFSSYAMSWVRQAPGKGLEWVSSISSGGSTYYPDSVKGRFTISRDNAKNSLYLQMNSLRAEDTAVYYCARGGDPGVYNGDYEDAMDYWGQGTTVTVSSASTKGPSVFPLAPCSRSTSESTAALGCLVKDYFPEPVTVSWNSGALTSGVHTFPAVLQSSGLYSLSSVVTVPSSNFGTQTYTCNVDHKPSNTKVDKTVERKCCVECPPCPAPPVAGPSVFLFPPKPKDTLMISRTPEVTCVVVDVSHEDPEVQFNWYVDGVEVHNAKTKPREEQFNSTFRVVSVLTVVHQDWLNGKEYKCKVSNKGLPAPIEKTISKTKGQPREPQVYTLPPSREEMTKNQVSLTCLVKGFYPSDIAVEWESNGQPENNYKTTPPMLDSDGSFFLYSKLTVDKSRWQQGNVFSCSVMHEALHNHYTQKSLSLSPGK
modifications: h130M23-H1L2 Heavy chain amino acid sequence
binding by FACS among candidate humanized chain variants (RSPO): most robust binding

Source: US9644034B2, “Anti-RSPO2 antibodies and uses thereof” (OncoMed Pharmaceuticals, Inc., priority 2011, dated 2017)
